# According to patent US20100015137A1 (IMMUNEX, published 2010):
# B1: LZ-TRAIL (leucine zipper peptide fused to the N-terminus of a soluble human TRAIL polypeptide) (ligand, UniProt P50591 95-281, looked up)
# chain: TSEETISTVQEKQQNISPLVRERGPQRVAAHITGTRGRSNTLSSPNSKNEKALGRKINSWESSRSGHSFLSNLHLRNGELVIHEKGFYYIYSQTYFRFQEEIKENTKNDKQMVQYIYKYTSYPDPILLMKSARNSCWSKDAEYGLYSIYQGGIFELKENDRIFVSVTNEHLIDMDHEASFFGAFLVG
# notes: range 95-281; also called LZ-huTRAIL; not shown: modified leucine zipper that allows for trimerization
# Biological target: T1, full length human TRAIL receptor (TRAIL-R) (human, UniProt O14763 56-440)
# T1 construct: The signal peptide is only predicted (residues 1-51)
# Assay: flow cytometry on transfected CV-1/EBNA cells, LZ-TRAIL at 5 µg/ml
# Method: CV-1/EBNA cells were co-transfected with pDC409-TRAIL-R together with pDC409-CrmA, or with pDC409-CrmA alone. The cells were cultured in DMEM supplemented with 10% fetal bovine serum, penicillin, streptomycin, and glutamine. […] The cytometric analysis was conducted on a FACscan (Beckton Dickinson, San Jose, Calif.).
binder,measurement,value
B1,binding result,binds
